The target in test [1] is T1, human CCR8 (human, UniProt P51685 1-355). The test is described as follows: cell-based or functional assay.
Test [2] addresses T2, cynomolgus monkey CCR8 (cynomolgus monkey, UniProt G7NYJ2 1-355).
T2 construct: whole, on cells; also called CynoCCR8
The experiment in a line: FACS, CHO-K1-CynoCCR8 cells. The procedure:
(§1) Cells overexpressing cynomolgus monkey CCR8, CHO-K1-CynoCCR8, were digested with pancreatin, counted and resuspended to a cell density of 1E6 cells/mL. The cell suspension was added to a 96-well V-bottom plate at 100 μL/well and centrifuged at 300 g for 5 min, and the supernatant was discarded. The anti-CCR8 antibodies provided herein was used as a primary antibody and diluted in a 5-fold gradient with an FACS buffer (DPBS containing 2% FBS) from 200 nM. The diluted primary antibody was added at 100 μL/well to resuspend the cells, and the mixture was incubated at 4° C. for 1 h. The plate was washed twice with DPBS and centrifuged at 300×g for 5 min, and the supernatant was discarded. The secondary antibody diluted in a 1:1000 ratio with an FACS buffer was added at 100 μL/well to suspend the cells, and the mixture was incubated at 4° C. for 40 min. The plate was washed twice with DPBS and centrifuged at 300×g for 5 min, and the supernatant was discarded. DPBS was added at 200 μL/well to suspend the cells, and the mixture was loaded on an FACS machine for analysis.
(In general: A flow cytometer gives signals particle by particle.)

Test [3] concerns the target T1, human CCR8. The experiment in a line: FACS, CHO-K1-hCCR8 cells. In outline: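 Binding was measured on intact cells by two-step staining at 4 °C. Test antibodies were applied from 200 nM in 5-fold steps for 1 h, and a secondary reagent at 1:1000 for 40 min, before analysis on a FACS instrument.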
Test [4] concerns the target T1, human CCR8. The test is described as follows: FACS, HEK293-hCCR8 cells. The procedure: as §1, with “human CCR8” for “cynomolgus monkey CCR8, CHO-K1-CynoCCR8,”
Test [5] has as its target T1, human CCR8. The experiment in a line: cell-based or functional assay. The source holds these as a separate data set.
Test [6] concerns the target T1, human CCR8. The experiment in a line: FACS competition on HEK293-hCCR8 cells against a biotin-labelled anti-CCR8 antibody at its EC80; the labelled antibody of this panel is not named on the sheet. Here is the method: (§2) The antibody was conjugated with Sulfo-NHS-LC-Biotin at a molar ratio of 5:1 (1 mol antibody was added to 5 mol Sulfo-NHS-LC-Biotin) with reference to the product instructions (ThermoFisher, Cat No. A39257) and incubated on ice for 2 h. The coupled antibody was purified with a Zeba desalting column (ThermoFisher, Cat No. 89882). Cells overexpressing human CCR8, HEK293-hCCR8, were added to a V-bottom 96-well plate at a density of 1E5 cells/well and centrifuged at 300 g for 5 min, and the supernatant was discarded. The competitive antibody was serially diluted in a ratio of 1:10 from 200 nM to obtain 8 concentration points. The Biotin-antibody and the competition antibody were mixed in a 1:1 ratio on an HEK293 cell line overexpressing human CCR8 by the binding EC₈₀ concentration. The cells in the 96-well plate were resuspended and incubated at 4° C. for 1 h. The plate was washed twice with DPBS at 200 μL/well. The secondary antibody diluted in a 1:1000 ratio was added at 100 μL/well, and the mixture was incubated at 4° C. for 40 min. The plate was washed twice with DPBS at 200 μL/well. Finally, DPBS was […] at 200 μL/well to suspend the cells, and the mixture was loaded on an FACS machine for analysis.

For test [7], the target named is T1, human CCR8. Described as above. The procedure:
as §2
The source holds these as a separate data set.

The target of test [8] is T1, human CCR8. The test is described as follows: FACS, Baf3-hCCR8 cells. Here is the method:
as §1, with “human CCR8” for “cynomolgus monkey CCR8, CHO-K1-CynoCCR8,”

Test [9] concerns the target T1, human CCR8. The test is described as follows: FACS competition on HEK293-hCCR8 cells against a biotin-labelled anti-CCR8 antibody at its EC80; the labelled antibody of this panel is not named on the sheet. Here is the method: as §2
This is another data set of the same source.

Test [10] addresses T1, human CCR8. The test is described as above. The procedure:
as §2
The source holds these as a separate data set.

Test [11] deals with T2, cynomolgus monkey CCR8. The test is described as follows: FACS, CHO-K1-CynoCCR8 cells. Here is the method:
as §1
The source holds these as a separate data set.

In test [12] the target is T1, human CCR8. The experiment in a line: FACS competition on HEK293-hCCR8 cells against a biotin-labelled anti-CCR8 antibody at its EC80; the labelled antibody of this panel is not named on the sheet. The procedure: as §2
The source holds these as a separate data set.

Test [13] addresses T1, human CCR8. The test is described as follows: FACS, CHO-K1-hCCR8 cells. The procedure:
as §1, with “human CCR8” for “cynomolgus monkey CCR8, CHO-K1-CynoCCR8,”
This is another data set of the same source.

Test [14] has as its target T1, human CCR8. The experiment in a line: FACS, HEK293-hCCR8 cells. Here is the method: as §1, with “human CCR8” for “cynomolgus monkey CCR8, CHO-K1-CynoCCR8,”
The source holds these as a separate data set.

Test [15] addresses T2, cynomolgus monkey CCR8. The test is described as follows: FACS, CHO-K1-CynoCCR8 cells. Here is the method:
as §1
The source holds these as a separate data set.

Test [16] deals with T1, human CCR8. The test is described as follows: FACS, CHO-K1-hCCR8 cells. Here is the method: as §1, with “human CCR8” for “cynomolgus monkey CCR8, CHO-K1-CynoCCR8,”
This is another data set of the same source.

The target of test [17] is T1, human CCR8. The experiment in a line: FACS, CHO-K1-hCCR8 cells. Here is the method: as §1, with “human CCR8” for “cynomolgus monkey CCR8, CHO-K1-CynoCCR8,”
This is another data set of the same source.

The target of test [18] is T2, cynomolgus monkey CCR8. The experiment in a line: FACS, CHO-K1-CynoCCR8 cells. The procedure: as §1
The source holds these as a separate data set.

Test [19] has as its target T1, human CCR8. The test is described as follows: FACS on CHO-K1 cells overexpressing human CCR8. The procedure: as §1, with “human CCR8” for “cynomolgus monkey CCR8, CHO-K1-CynoCCR8,”

Changes are numbered by the printed parent chain. In names and notes the source's numbering stands. Read-outs that look alike come from different tables or passages of the source.

The term EC50 denotes the concentration at which the effect is half-maximal. For orientation: EC50 (read off the curve) means the concentration that produces a half-maximal response.

T1 sequence (P51685 whole entry): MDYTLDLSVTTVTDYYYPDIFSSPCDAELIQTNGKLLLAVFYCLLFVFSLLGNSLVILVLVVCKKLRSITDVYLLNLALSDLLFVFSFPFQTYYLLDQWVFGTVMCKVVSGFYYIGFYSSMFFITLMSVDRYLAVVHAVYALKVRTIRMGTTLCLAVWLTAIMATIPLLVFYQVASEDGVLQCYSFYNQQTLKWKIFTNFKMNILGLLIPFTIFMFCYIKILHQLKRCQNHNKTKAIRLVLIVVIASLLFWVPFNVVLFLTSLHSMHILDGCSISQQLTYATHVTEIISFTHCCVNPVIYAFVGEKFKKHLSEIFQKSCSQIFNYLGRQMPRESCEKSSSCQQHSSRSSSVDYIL
T2 sequence (G7NYJ2 entry or part of it): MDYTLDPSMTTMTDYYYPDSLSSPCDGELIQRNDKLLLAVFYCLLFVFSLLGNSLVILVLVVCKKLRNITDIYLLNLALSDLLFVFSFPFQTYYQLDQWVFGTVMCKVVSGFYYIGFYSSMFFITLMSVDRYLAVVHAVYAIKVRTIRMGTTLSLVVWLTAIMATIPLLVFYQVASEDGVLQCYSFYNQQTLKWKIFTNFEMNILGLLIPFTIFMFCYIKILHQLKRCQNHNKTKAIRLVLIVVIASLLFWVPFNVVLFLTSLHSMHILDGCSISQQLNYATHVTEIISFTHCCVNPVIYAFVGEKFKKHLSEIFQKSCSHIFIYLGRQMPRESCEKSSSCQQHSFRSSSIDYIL

B1: PR006275AF (antibody, human IgG1, kappa)
heavy: not shown
light: DIVMTQSPLSLPVTLGQPASISCRSSKSLLHSNAKIYLYWFQQRPGQSPRLLIYRMSNLASGVPDRFSGSGSGTDFTLKISRVEAEDVGVYYCMQHLEYPLTFGQGTKLEIKRTVAAPSVFIFPPSDEQLKSGTASVVCLLNNFYPREAKVQWKVDNALQSGNSQESVTEQDSKDSTYSLSSTLTLSKADYEKHKVYACEVTHQGLSSPVTKSFNRGEC
modifications: afucosylated (AF) Fc glycan, produced with 2-fluoro peracetylated fucose
notes: also called PR00PR006275AF; R00PR006275AF
For B1, in the test with human CCR8 [1], the “EC50, ADCC reporter gene activity (Jurkat/FcγR III-NFAT effector cells)” value (from here on “EC50, ADCC reporter gene activity”) turned out to be 2.6 nM. Further, the 50% effective concentration (EC50) is 0.51 nM in the test with cynomolgus monkey CCR8 [2] and 0.4 nM with human CCR8 [3].

B2: PR006276AF (antibody, human IgG1, kappa)
heavy: not shown
light: B1 light
modifications: afucosylated (AF) Fc glycan, produced with 2-fluoro peracetylated fucose
B2: the “EC50, ADCC reporter gene activity” value in the test with human CCR8 [1] came to 1.66 nM. The EC50 with cynomolgus monkey CCR8 [2] turned out to be 0.5 nM; with human CCR8 [3], 0.39 nM.

B3: PR004128 (antibody, human IgG1, kappa)
heavy: not shown
light: DIVMTQAAPSVPVTPGESVSISCRSSKSLLHSNGKIYLYWFLQRPGQSPQLLIYRMSNLASGVPDRFSGSGSGTAFTLRISRVEAEDVGVYYCMQHLEYPLTFGAGTKLEIKRTVAAPSVFIFPPSDEQLKSGTASVVCLLNNFYPREAKVQWKVDNALQSGNSQESVTEQDSKDSTYSLSSTLTLSKADYEKHKVYACEVTHQGLSSPVTKSFNRGEC
notes: chimeric, human IgG1 constant region; also called RP004128; PRO4128
As for B3, the concentration giving a half-maximal response (EC50) with human CCR8 [4] stood at 0.87 nM; with human CCR8 [8] it was 0.14 nM; in the test with cynomolgus monkey CCR8 [11], 7.39 nM; with human CCR8 [13] it was 2.54 nM; with human CCR8 [14], 4.53 nM; with cynomolgus monkey CCR8 [2], 0.83 nM. Further, the concentration giving a half-maximal response (EC50) was 2.26 nM in the test with cynomolgus monkey CCR8 [15]; 0.55 nM with human CCR8 [16]; 0.91 nM with human CCR8 [17]; 4.73 nM with cynomolgus monkey CCR8 [18]; 0.42 nM with human CCR8 [3]. Also, in the test with human CCR8 [5], the “Bottom %, blocking of CCL1-stimulated calcium flux” value amounted to 7%. The “IC50(nM), blocking of CCL1-stimulated calcium flux” value with human CCR8 [5] is 1.51 nM. The “IC50 (read off the curve)” value in the test with human CCR8 [6] was about 2 nM; in the test with human CCR8 [7] it was 1 to 2 nM; with human CCR8 [9] it was about 3 nM; with human CCR8 [10] it was about 2 nM; in the test with human CCR8 [12] it was about 2 nM.

B4: PR005170 (antibody, human IgG1, kappa, V domains shown)
VH: EVQLVESGGGLVQPKGSLKLSCAASGFTFNTYAMNWVRQAPGKGLEWVARIRSKSNNYATYYADSVKDRFTISRDDSQSMLYLQMNNLKTEDTAMYYCVRGKENGNYYAMDFWGQGTSVTVSA
VL: DIVMTQAAPSVPVTPGESVSISCRSSKSLLHSNGKIYLYWFLQRPGQSPQLLIYRMSNLASGVPDRFSGSGSGTAFTLRISRVEAEDVGVYYCMQHLEYPITFGAGTKLEIKR
notes: heavy chain entry as PR004128
Take B4: the “EC50 (read off the curve)” value with human CCR8 [19] is about 1 nM.

B5: PR004250 (antibody, human IgG1, kappa)
heavy: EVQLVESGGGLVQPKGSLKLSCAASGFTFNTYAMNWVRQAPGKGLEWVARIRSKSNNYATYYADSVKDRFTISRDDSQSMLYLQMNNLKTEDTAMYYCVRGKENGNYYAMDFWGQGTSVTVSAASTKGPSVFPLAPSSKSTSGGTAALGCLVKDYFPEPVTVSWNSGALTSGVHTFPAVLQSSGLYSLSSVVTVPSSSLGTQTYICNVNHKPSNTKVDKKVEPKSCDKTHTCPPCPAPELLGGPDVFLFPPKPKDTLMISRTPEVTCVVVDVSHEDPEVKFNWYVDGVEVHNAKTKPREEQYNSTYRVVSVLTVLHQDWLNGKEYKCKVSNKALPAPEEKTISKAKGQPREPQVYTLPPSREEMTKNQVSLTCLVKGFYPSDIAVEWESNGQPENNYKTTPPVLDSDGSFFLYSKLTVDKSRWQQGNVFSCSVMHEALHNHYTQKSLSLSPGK
light: B3 light with K35N, I36T, I111M
notes: PR004125 with S239D and I332E (DE) in the IgG1 constant region
On to B5, for which, in the test with human CCR8 [1], the “EC50, ADCC reporter gene activity” value is 0.04 nM. For the same molecule, the 50% effective concentration (EC50) with cynomolgus monkey CCR8 [11] stood at 3.5 nM; in the test with human CCR8 [14], 1.66 nM.

B6: PR005172 (antibody, human IgG1, kappa, V domains shown)
VH: B4 VH
VL: B4 VL with I101V
notes: heavy chain entry as PR004128
As to B6, the “EC50 (read off the curve)” value with human CCR8 [19] is about 2 nM.

B7: PR004125 (antibody, human IgG1, kappa)
heavy: not shown
light: B3 light with K35N, I36T, I111M
notes: chimeric, human IgG1 constant region
Regarding B7, the EC50 came out at 0.72 nM with human CCR8 [4]; 0.21 nM with human CCR8 [8]; 2.44 nM with cynomolgus monkey CCR8 [11]; 0.66 nM in the test with human CCR8 [14]; 1.16 nM in the test with cynomolgus monkey CCR8 [2]; 0.5 nM with human CCR8 [3]. Further, in the test with human CCR8 [5], the “Bottom %, blocking of CCL1-stimulated calcium flux” value came to 23%. Further, in the test with human CCR8 [5], the “IC50(nM), blocking of CCL1-stimulated calcium flux” value came to 1.16 nM. Further, the “EC50, ADCC reporter gene activity” value with human CCR8 [1] turned out to be 0.59 nM. Further, the “IC50 (read off the curve)” value is about 2 nM with human CCR8 [6]; 1 to 2 nM with human CCR8 [7]; about 3 nM in the test with human CCR8 [9]; about 2 nM in the test with human CCR8 [10]; about 2 nM with human CCR8 [12].

B8: PR005171 (antibody, human IgG1, kappa, V domains shown)
VH: B4 VH
VL: B4 VL with I101M
notes: heavy chain entry as PR004128
On to B8, for which the 50% effective concentration (EC50 (read off the curve)) with human CCR8 [19] was about 1 nM.

B9: PR004970 (antibody, human IgG1, kappa, V domains shown)
VH: EVQLVESGGGLVQPGGSLRLSCAASGFTFSSYWMSWVPQAPGKGLEWVANIKQDGSAKFYVDSVKGRFTISRDNAKNSLYLQMNSLRAEDTAVYYCARSWGFAYWGQGTLVTVSS
VL: DIQMTQSPSSLSASVGDRVTITCRASQGISNYLAWYQQKPGKVPKLLIYAASTLQSGVPSRFSGSGSGTDFTLTISSLQPEDVATYYCQKYNSAPWTFGQGTKVEIKR
notes: fully human, from single cell clone screening
For the molecule B9, the binding result in the test with human CCR8 [19] is listed as “binds”.
